Measurements: the supplement of paper PMC10567573

B1: LMNB1 (parent)
chain: LYKEELEQTYHAKLENARLSSEMN
B2: ESRRA (parent)
chain: LGVAQRSLPLQDELAFAEDLVLDE

Variants of: B1
Test: protein stability index of a GFP-peptide fusion (GPS, HEK-293T) (PSI 1-6); higher = more stable
Settings: c terminus: a fixed tail appended
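Further: lentivirally expressed fusions sorted by FACS into six bins by GFP to DsRed ratio, PSI derived from sequencing read proportions per bin multiplied by bin number.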

Protein stability index of substitutions, site by site:
E5: W 1.37, I 1.82, Q 1.54, L 3.89, P 3.1, T 1.83, F 2.28, A 2.28, M 2.42, S 2.4, R 1.76, N 2.53, H 2.27, Y 3.37, D 3.01, C 2.32, K 3.09, V 2.77, G 2.46
E7: Q 3.4, S 2.72, H 2.53, V 3.05, F 1.83, P 3.35, I 2.84, N 3.38, D 3.52, G 3.23, L 3.17, C 2.11, Y 2.38, R 3.44, K 2.77, W 2.34, A 2.47, T 3.26, M 2.07
Q8: K 2.49, C 2.86, E 3.15, V 2.09, S 2.56, Y 2.45, W 1.71, R 2.81, A 2.19, T 3.21, D 3.46, P 3.84, H 2.08, F 2.09, N 2.8, L 2.38, M 2.5, I 2.52
Y10: H 4.8, E 5.55, M 4.27, A 4.25, C 4.16, G 4.52, T 4.66, P 4.4, I 4.17, S 4.49, N 4.67, Q 4.79, D 4.97, W 2.63, F 3.67, R 4.48, K 5.14, V 4.49, L 4.23
L6: E 4.49, S 4.7, H 4.26, A 4.29, T 4.75, Q 5.03, V 4.34, P 4.39, K 4.4, N 4.57, M 4.03, G 3.81, W 4.74, D 4.72, R 4.38, C 3.8, F 3.21, Y 4.48, I 3.46
T9: E 4.24, L 2.16, K 3.1, Y 3.31, W 3.65, R 3.64, C 3.12, Q 3.77, H 2.7, M 2.65, D 4.61, V 2.61, I 2.6, F 2.57, A 3.59, P 4.23, N 3.88, S 3.92
E4: W 1.55, S 2.94, V 2.97, C 2.38, T 3.06, Y 2.08, L 2.17, K 2.46, H 2.94, I 2.02, P 3.68, M 2.18, G 2.38, N 3.27, R 2.51, F 2.37, Q 2.56, D 2.69, A 2.7
H11: W 3.08, N 3.14, Q 4.24, L 2.84, D 4.95, E 4.71, V 3.53, T 4.16, I 3.12, M 3.45, P 3.91, A 3.81, C 3.73, R 2.88, F 3.29, Y 2.48, S 4.06, K 2.4
Y2: L 3.04, R 3.48, C 2.78, M 2.31, G 4.15, P 3.06, E 4.37, S 4.12, V 1.77, Q 4.21, F 1.96, K 3.27, D 4.18, H 4, A 2.91, T 4.08, W 1.5, N 3.46, I 2.09
A12: E 4.72, C 2.09, H 3.71, D 4.61, I 2.87, G 3.44
K3: Q 2.56, A 1.94, T 2.81, W 1.61, R 2.9, H 2.91, V 1.67, N 3.29, D 3.56, E 2.47, S 2.65, Y 2.34, C 2.64, I 2.19, F 1.77, G 2.73, L 1.79, M 1.7, P 3.09
L1: D 4.03, S 2.9, P 4.45, T 2.85, E 3.99, V 2.75, H 3.19, C 3.14, W 2.21, R 2.91, A 2.92, N 2.98, Q 3.6, Y 3.24, M 3.06, K 2.97, F 2.27, I 2.5, G 3.53

Variants of: B2
Test: as above
Settings: c terminus: a fixed tail appended

Protein stability index: each site, then its substitutions
E24: W 2.21, P 3.92, F 2.42, S 3.13, D 4.07, I 3.34, M 2.95, V 2.21, Y 2.53, H 2.57, C 1.66, R 3.38, K 4.02, N 3.24, A 1.89, G 4.13, T 3.11, Q 3.67, L 2.3
D23: M 2.01, V 1.88, W 2.1, G 1.72, C 2.38, L 2.64, N 1.88, P 4.49, Y 2.3, F 5.28, S 2.58, A 3.11, T 3.21, R 2.51, E 2.65, I 1.51, K 2.41, Q 1.74, H 2.34
L20: F 4.98, G 5.51, H 4.81, C 2.51, Q 4.21, S 4.4, V 3.67, N 4.85, K 4.98, Y 4.67, M 2.16, T 5.16, I 3.18, R 4.19, D 5.36, W 4.82, E 3.12, A 4.42, P 5.75
D19: S 2.21, W 2.23, N 1.76, K 2.49, F 2.56, Q 3.58, L 2.16, Y 2.03, M 2.43, V 1.76, P 4.89, C 1.82, H 1.83, T 1.91, I 1.94, A 1.89, G 2.05, E 2.34, R 2.01
E18: V 3.65, T 4.81, Y 3.48, R 5.04, P 4.64, S 4.4, W 3.11, Q 4.34
V21: T 5.39, A 5.06, E 5.31, G 5.31, P 5.27, R 4.83, D 5.76, H 5.28, K 5.28, S 4.43, W 4.03, Y 4.61, I 1.56, Q 5.24, L 3.96, F 4.63, N 5.49, M 4.49, C 4.31
L22: K 2.74, M 4.2, E 5.71, S 5.02, G 5.51, I 3.55, H 3.52, W 3.85, Y 3.98, D 5.13, V 4.14, Q 3.81, F 3.95, T 5.18, R 2.89, A 3.96, C 3.76, N 4.69, P 5.34
